Source: patent US20130288372A1 (Bristol-Myers Squibb, published 2013)

T1: Human IL-23 (human, UniProt Q9NPF7 20-189; P29460 23-328)
T1 sequence (looked up) 1: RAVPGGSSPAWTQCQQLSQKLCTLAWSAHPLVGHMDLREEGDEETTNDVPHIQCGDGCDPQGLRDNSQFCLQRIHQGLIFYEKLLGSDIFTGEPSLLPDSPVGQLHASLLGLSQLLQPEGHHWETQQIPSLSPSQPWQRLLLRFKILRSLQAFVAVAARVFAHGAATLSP
T1 sequence (looked up) 2: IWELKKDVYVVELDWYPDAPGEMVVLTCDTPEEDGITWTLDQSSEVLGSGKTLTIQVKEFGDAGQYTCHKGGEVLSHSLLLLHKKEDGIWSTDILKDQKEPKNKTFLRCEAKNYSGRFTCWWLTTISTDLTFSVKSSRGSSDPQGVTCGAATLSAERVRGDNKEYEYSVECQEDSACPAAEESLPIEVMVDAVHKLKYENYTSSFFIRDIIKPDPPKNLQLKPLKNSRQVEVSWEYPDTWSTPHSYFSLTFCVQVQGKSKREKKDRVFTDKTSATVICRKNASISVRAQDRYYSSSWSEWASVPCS


Experiments:
Human IL-23 [1] = biological target: T1, Human IL-23; test: cell-based or functional assay
Human IL-23 [2] = biological target: T1, Human IL-23; test: competitive ELISA, ratio of IC50 against parent 1454B08
Method: (§1) Adnectin variants were tested by ELISA for their ability to bind IL-23 in a manner that was competitive with the binding site of the native IL-23 receptor (IL-23R). Recombinant human IL-23R-Fc (R&D Systems, Minneapolis, Minn.) was coated overnight at 4° C. on a NUNC® Maxisorp plate (Thermo Fisher Scientific, Denmark) with 50 μL at 4 μg/mL in PBS. All washing was performed with PBST (PBS with 0.05% (w/v) Tween) using an automated plate washer (Biotek, Vt.). OptEIA buffer (BD Bioscience, CA) was used as block and assay diluent. Adnectin dilutions ranging from 200 nM to 28 pM were pre-incubated with 1 nM IL-23 for an hour before transferring to blocked IL-23R-Fc coated plates for 30 minutes. Bound IL-23 was detected via anti-IL-23 (GeneTex, CA) and anti-mouse-HRP (R&D Systems, MN) followed by TMB (3,3′,5,5′-tetramethylbenzidine) (BD Bioscience, CA) addition. Typical development time was 10 minutes. […] IC50s were generated from the average of four runs with an in-house curve fitting application.

Human IL-23 [3] = biological target: T1, Human IL-23; test: competitive ELISA: Adnectin pre-incubated with 1 nM IL-23, binding to coated IL-23R-Fc
Method: as §1

Human IL-23 [4] = biological target: T1, Human IL-23; test: SPR (Biacore T100), Adnectin captured by anti-His mAb, IL-23 injected, 25 C
Method: The anti-His antibody, mAb050 (RnD Systems, MN) was diluted to 20 μg/mL in acetate, pH 5.0 and immobilized to ˜9000 RU on flow cells 1 and 2 of a CM5 chip surface (GE Healthcare, Piscataway, N.J.) according to the manufacturer's instructions. All surface plasmon experiments were conducted in HBS-EP (10 mM Hepes 150 mM NaCl 3 mM EDTA 0.05% Surfactant P20) at 25° C. IL-23 was injected over anti-His mAb captured Adnectins for 2 minutes followed by a 10 minute dissociation phase. Kinetic parameters were calculated using the T100. Biaevaluation.

Molecule	pSTAT3 IC50 (nM) (Human IL-23 [1])	Activity (parent/mutant) (Human IL-23 [2])	IC50 (Human IL-23 [3]) [nM]	Kd (Human IL-23 [4]) [nM]	koff (Human IL-23 [4]) [s⁻¹]	kon (Human IL-23 [4]) [M⁻¹ s⁻¹]
anti-p19 polyclonal antibody (AF1716)	36.5					
Anti-IL-23 Adnectin 1866F10 (designed binder) MGVSDVPRDLEVVAATPTSLLISWDHDYPYRRYYRITYGETGGNSPVQEFTVPRNINTATISGLKPGVDYTITVYAVTSTLKYDIQYSPISINYRTEIDKPSQHHHHHH	0.06					
1454B08 P87→A (designed binder, Point variant of 1454B08) MGVSDVPRDLEVVAATPTSLLISWEHDYPYRRYYRITYGETGGNSPVQEFTVPKDVDTATISGLKPGVDYTITVYAVTSSYKYDMQYSAISINYRTEIDKPSQHHHHHH		0.1	8.3			
1454B08 V75→Q (designed binder, Point variant of 1454B08) MGVSDVPRDLEVVAATPTSLLISWEHDYPYRRYYRITYGETGGNSPVQEFTVPKDVDTATISGLKPGVDYTITVYAQTSSYKYDMQYSPISINYRTEIDKPSQHHHHHH		0.4	2.3			
1454B08 Y28→A (designed binder, Point variant of 1454B08) MGVSDVPRDLEVVAATPTSLLISWEHDYPARRYYRITYGETGGNSPVQEFTVPKDVDTATISGLKPGVDYTITVYAVTSSYKYDMQYSPISINYRTEIDKPSQHHHHHH		0.08	13			
Anti-IL-23 Adnectin 1454F07 (designed binder, 10Fn3-based Adnectin expressed in E. coli followed by a HIS6 tag; Fn3 domain is positions 3-96 of the entry) MGVSDVPRDLEVVAATPTSLLISWYHMYSYRRYYRITYGETGGNSPVQEFTVPRDVDTATISGLKPGVDYTITVYAVTSSYKYDMQYSPISINYRTEIDKPSQHHHHHH				9.43	0.000447	47400
Anti-IL-23 Adnectin 1454F05 (designed binder, 10Fn3-based Adnectin expressed in E. coli followed by a HIS6 tag; Fn3 domain is positions 3-96 of the entry) MGVSDVPRDLEVVAATPTSLLISWYMHYPYSRYYRITYGETGGNSPVQEFTVPKQHDTATISGLKPGVDYTITVYAVTSSYKYDMQYSPISINYRTEIDKPSQHHHHHH				4.75	0.000525	111000
1454B08 T35→D (designed binder, Point variant of 1454B08; also called Thr35→Asp) MGVSDVPRDLEVVAATPTSLLISWEHDYPYRRYYRIDYGETGGNSPVQEFTVPKDVDTATISGLKPGVDYTITVYAVTSSYKYDMQYSPISINYRTEIDKPSQHHHHHH		0.02	49			
1454B08 V75→K (designed binder, Point variant of 1454B08) MGVSDVPRDLEVVAATPTSLLISWEHDYPYRRYYRITYGETGGNSPVQEFTVPKDVDTATISGLKPGVDYTITVYAKTSSYKYDMQYSPISINYRTEIDKPSQHHHHHH		0.2	5.7			
Anti-IL-23 Adnectin 1454E09 (designed binder, 10Fn3-based Adnectin expressed in E. coli followed by a HIS6 tag; Fn3 domain is positions 3-96 of the entry) MGVSDVPRDLEVVAATPTSLLISWMHDYPYRRYYRITYGETGGNSPVQEFTVPMEEDTATISGLKPGVDYTITVYAVTSSYKYDMQYSPISINYRTEIDKPSQHHHHHH				10.1	0.000569	56600
Anti-IL-23 Adnectin 1454B05 (designed binder, 10Fn3-based Adnectin expressed in E. coli followed by a HIS6 tag; Fn3 domain is positions 3-96 of the entry) MGVSDVPRDLEVVAATPTSLLISWYHDYPYRRYYRITYGETGGNSPVQEFTVPKDEETATISGLKPGVDYTITVYAVTSSYKYDMQYSPISINYRTEIDKPSQHHHHHH				2.27	0.000677	298000
1454B08 Y81→A (designed binder, Point variant of 1454B08) MGVSDVPRDLEVVAATPTSLLISWEHDYPYRRYYRITYGETGGNSPVQEFTVPKDVDTATISGLKPGVDYTITVYAVTSSYKADMQYSPISINYRTEIDKPSQHHHHHH		0.03	35			
Anti-IL-23 Adnectin 1454F09 (designed binder, 10Fn3-based Adnectin expressed in E. coli followed by a HIS6 tag; Fn3 domain is positions 3-96 of the entry) MGVSDVPRDLEVVAATPTSLLISWDHNYSYRRYYRITYGETGGNSPVQEFTVPRHTDTATISGLKPGVDYTITVYAVTSSYKYDMQYSPISINYRTEIDKPSQHHHHHH				7.45	0.000928	125000

The remaining molecules from weak to strong by IC50 (Human IL-23 [3]), led by results:

pSTAT3 IC50 (nM) (Human IL-23 [1])	Activity (parent/mutant) (Human IL-23 [2])	IC50 (Human IL-23 [3]) [nM]	Kd (Human IL-23 [4]) [nM]	koff (Human IL-23 [4]) [s⁻¹]	kon (Human IL-23 [4]) [M⁻¹ s⁻¹]	Molecule
	0.4	2.2				1454B08 V75→Y (designed binder, Point variant of 1454B08) MGVSDVPRDLEVVAATPTSLLISWEHDYPYRRYYRITYGETGGNSPVQEFTVPKDVDTATISGLKPGVDYTITVYAYTSSYKYDMQYSPISINYRTEIDKPSQHHHHHH
	0.6	1.7				1454B08 T35→N (designed binder, Point variant of 1454B08) MGVSDVPRDLEVVAATPTSLLISWEHDYPYRRYYRINYGETGGNSPVQEFTVPKDVDTATISGLKPGVDYTITVYAVTSSYKYDMQYSPISINYRTEIDKPSQHHHHHH
	0.8	1.2				1454B08 Y73→R (designed binder, Point variant of 1454B08) MGVSDVPRDLEVVAATPTSLLISWEHDYPYRRYYRITYGETGGNSPVQEFTVPKDVDTATISGLKPGVDYTITVRAVTSSYKYDMQYSPISINYRTEIDKPSQHHHHHH
	0.8	1.2				1454B08 Y73→N (designed binder, Point variant of 1454B08) MGVSDVPRDLEVVAATPTSLLISWEHDYPYRRYYRITYGETGGNSPVQEFTVPKDVDTATISGLKPGVDYTITVNAVTSSYKYDMQYSPISINYRTEIDKPSQHHHHHH
	1	1				1454B08 T35→Q (designed binder, Point variant of 1454B08) MGVSDVPRDLEVVAATPTSLLISWEHDYPYRRYYRIQYGETGGNSPVQEFTVPKDVDTATISGLKPGVDYTITVYAVTSSYKYDMQYSPISINYRTEIDKPSQHHHHHH
	1.2	0.83				1454B08 V45→D (designed binder, Point variant of 1454B08) MGVSDVPRDLEVVAATPTSLLISWEHDYPYRRYYRITYGETGGNSPDQEFTVPKDVDTATISGLKPGVDYTITVYAVTSSYKYDMQYSPISINYRTEIDKPSQHHHHHH
	1.5	0.65				1454B08 Y73→A (designed binder, Point variant of 1454B08) MGVSDVPRDLEVVAATPTSLLISWEHDYPYRRYYRITYGETGGNSPVQEFTVPKDVDTATISGLKPGVDYTITVAAVTSSYKYDMQYSPISINYRTEIDKPSQHHHHHH
	1.7	0.6				1454B08 T35→E (designed binder, Point variant of 1454B08) MGVSDVPRDLEVVAATPTSLLISWEHDYPYRRYYRIEYGETGGNSPVQEFTVPKDVDTATISGLKPGVDYTITVYAVTSSYKYDMQYSPISINYRTEIDKPSQHHHHHH
	1.8	0.54				1454B08 V45→N (designed binder, Point variant of 1454B08) MGVSDVPRDLEVVAATPTSLLISWEHDYPYRRYYRITYGETGGNSPNQEFTVPKDVDTATISGLKPGVDYTITVYAVTSSYKYDMQYSPISINYRTEIDKPSQHHHHHH
	1.9	0.51				1454B08 V45→E (designed binder, Point variant of 1454B08) MGVSDVPRDLEVVAATPTSLLISWEHDYPYRRYYRITYGETGGNSPEQEFTVPKDVDTATISGLKPGVDYTITVYAVTSSYKYDMQYSPISINYRTEIDKPSQHHHHHH
	2.9	0.34				1454B08 V45→Q (designed binder, Point variant of 1454B08) MGVSDVPRDLEVVAATPTSLLISWEHDYPYRRYYRITYGETGGNSPQQEFTVPKDVDTATISGLKPGVDYTITVYAVTSSYKYDMQYSPISINYRTEIDKPSQHHHHHH
	3.8	0.26				1454B08 Y73→Q (designed binder, Point variant of 1454B08; also called Tyr 73→Gln) MGVSDVPRDLEVVAATPTSLLISWEHDYPYRRYYRITYGETGGNSPVQEFTVPKDVDTATISGLKPGVDYTITVQAVTSSYKYDMQYSPISINYRTEIDKPSQHHHHHH
